Drawing on paper PMC5309844, this text covers amount of thiols on recombinant NR1 protein after 2 h with recombinant PDI for one substance.

This experiment deals with full-length recombinant human NR1 protein (human) (UniProt Q05586).

Sequence of recombinant human PDI (P07237 18-508): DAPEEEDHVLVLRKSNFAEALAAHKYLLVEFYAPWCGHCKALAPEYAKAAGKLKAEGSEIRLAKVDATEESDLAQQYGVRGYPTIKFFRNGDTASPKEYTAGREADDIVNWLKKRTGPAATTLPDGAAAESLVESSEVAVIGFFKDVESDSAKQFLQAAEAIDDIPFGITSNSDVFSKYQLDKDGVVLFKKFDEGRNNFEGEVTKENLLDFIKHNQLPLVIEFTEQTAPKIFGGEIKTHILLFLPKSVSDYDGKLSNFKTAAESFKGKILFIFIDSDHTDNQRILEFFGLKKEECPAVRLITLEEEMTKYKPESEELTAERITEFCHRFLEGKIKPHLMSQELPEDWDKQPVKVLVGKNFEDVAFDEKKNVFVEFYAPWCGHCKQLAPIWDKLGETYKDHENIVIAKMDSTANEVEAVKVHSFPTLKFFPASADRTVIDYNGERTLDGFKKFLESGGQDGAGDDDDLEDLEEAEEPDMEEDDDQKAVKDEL

Take “recombinant human PDI (from UniProt P07237 18-508) (enzyme)”: the amount of thiols on recombinant NR1 protein after 2 h with recombinant PDI at room temperature (in vitro thiol reductase assay, modified biotin switch and Western blot), against vehicle came out at 3.2 fold.
